Key:
HLA-B*15:17 = experiment: IEDB peptide-MHC binding, purified MHC/competitive/fluorescence; filed as Kd, often an IC50 or EC50 that approximates it; ≥ and ≤ were set here for values at or beyond the usual limits of such assays
HLA-B*57:01 [1] = experiment: as above
HLA-A*02:16 [2] = experiment: as above
HLA-A*24:03 = experiment: as above
HLA-B*39:01 = experiment: as above
HLA-A*69:01 [3] = experiment: as above; details: source organism: Bacillus anthracis str. 'Ames Ancestor'
HLA-A*29:02 = experiment: as above
HLA-A*02:12 [4] = experiment: as above
HLA-A*02:03 [5] = experiment: as above
HLA-A*02:19 [6] = experiment: as above
HLA-B*15:01 [7] = experiment: as above
HLA-B*51:01 [8] = experiment: as above
HLA-A*03:01 [9] = experiment: as above
HLA-A*26:01 = experiment: as above
HLA-A*68:02 [10] = experiment: as above
HLA-B*18:01 [11] = experiment: as above
HLA-B*27:03 [12] = experiment: as above
HLA-A*02:01 [13] = experiment: as above
HLA-B*46:01 [14] = experiment: as above
HLA-A*02:11 [15] = experiment: as above
HLA-B*57:01 [16] = experiment: IEDB peptide-MHC binding, purified MHC/direct/fluorescence; filed as Kd, often an IC50 or EC50 that approximates it; ≥ and ≤ were set here for values at or beyond the usual limits of such assays; details: source organism: Rickettsia sibirica 246
HLA-A*02:16 [17] = experiment: as above; details: source organism: Rickettsia sibirica 246
HLA-A*69:01 [18] = experiment: as above; details: source organism: Rickettsia sibirica 246
HLA-A*02:12 [19] = experiment: as above; details: source organism: Rickettsia sibirica 246
HLA-A*02:03 [20] = experiment: as above; details: source organism: Rickettsia sibirica 246
HLA-A*02:19 [21] = experiment: as above; details: source organism: Rickettsia sibirica 246
HLA-B*15:01 [22] = experiment: as above; details: source organism: Rickettsia sibirica 246
HLA-B*51:01 [23] = experiment: as above; details: source organism: Rickettsia sibirica 246
HLA-A*03:01 [24] = experiment: as above; details: source organism: Rickettsia sibirica 246
HLA-A*68:02 [25] = experiment: as above; details: source organism: Rickettsia sibirica 246
HLA-B*18:01 [26] = experiment: as above; details: source organism: Rickettsia sibirica 246
HLA-B*27:03 [27] = experiment: as above; details: source organism: Rickettsia sibirica 246
HLA-A*02:01 [28] = experiment: as above; details: source organism: Rickettsia sibirica 246
HLA-B*46:01 [29] = experiment: as above; details: source organism: Rickettsia sibirica 246
HLA-A*02:11 [30] = experiment: as above; details: source organism: Rickettsia sibirica 246
HLA-A*23:01 = experiment: IEDB peptide-MHC binding, purified MHC/competitive/fluorescence; filed as Kd, often an IC50 or EC50 that approximates it; ≥ and ≤ were set here for values at or beyond the usual limits of such assays
[31] = source organism: Bacillus anthracis str. 'Ames Ancestor'
[32] = source organism: Burkholderia pseudomallei K96243
[33] = source organism: Rickettsia typhi str. Wilmington

MTQNISNDK was tested, and the Kd (HLA-B*15:17; [31]) was at least 20 µM, the Kd (HLA-B*57:01 [1]; [31]) was at least 20 µM and the Kd (HLA-A*02:16 [2]; [31]) was at least 20 µM. It also gave a Kd (HLA-A*24:03; [31]) of at least 20 µM, a Kd (HLA-B*39:01; [31]) of at least 20 µM and a Kd (HLA-A*69:01 [3]) of at least 20 µM. For the same sequence, the Kd (HLA-A*29:02; [31]) was at least 20 µM, the Kd (HLA-A*02:12 [4]; [31]) was at least 20 µM and the Kd (HLA-A*02:03 [5]; [31]) was at least 20 µM. The Kd (HLA-A*02:19 [6]; [31]) was at least 20 µM, the Kd (HLA-B*15:01 [7]; [31]) was at least 20 µM and the Kd (HLA-B*51:01 [8]; [31]) was at least 20 µM. The Kd (HLA-A*03:01 [9]; [31]) was 6 µM, the Kd (HLA-A*26:01; [31]) was at least 20 µM and the Kd (HLA-A*68:02 [10]; [31]) was at least 20 µM. It also gave a Kd (HLA-B*18:01 [11]; [31]) of at least 20 µM, a Kd (HLA-B*27:03 [12]; [31]) of at least 20 µM and a Kd (HLA-A*02:01 [13]; [31]) of at least 20 µM. The Kd (HLA-B*46:01 [14]; [31]) was at least 20 µM and the Kd (HLA-A*02:11 [15]; [31]) was at least 20 µM.
With APVESMALF the Kd (HLA-B*57:01 [16]) was at least 20 µM, the Kd (HLA-A*02:16 [17]) was at least 20 µM and the Kd (HLA-A*69:01 [18]) was at least 20 µM. The Kd (HLA-A*02:12 [19]) was at least 20 µM, the Kd (HLA-A*02:03 [20]) was at least 20 µM and the Kd (HLA-A*02:19 [21]) was at least 20 µM. The Kd (HLA-B*15:01 [22]) was at least 20 µM, the Kd (HLA-B*51:01 [23]) was at least 20 µM and the Kd (HLA-A*03:01 [24]) was at least 20 µM. The Kd (HLA-A*68:02 [25]) was at least 20 µM, the Kd (HLA-B*18:01 [26]) was at least 20 µM and the Kd (HLA-B*27:03 [27]) was at least 20 µM. It also gave a Kd (HLA-A*02:01 [28]) of at least 20 µM, a Kd (HLA-B*46:01 [29]) of at least 20 µM and a Kd (HLA-A*02:11 [30]) of at least 20 µM. It also gave a Kd (HLA-B*15:17; source organism: Rickettsia sibirica 246) of 15.1 µM.
Sequence DELWRGLLA has a Kd (HLA-B*57:01 [1]; [32]) of at least 20 µM, a Kd (HLA-A*02:16 [2]; [32]) of at least 20 µM and a Kd (HLA-A*24:03; [32]) of at least 20 µM. For the same sequence, the Kd (HLA-B*39:01; [32]) was at least 20 µM, the Kd (HLA-A*02:12 [4]; [32]) was at least 20 µM and the Kd (HLA-A*02:03 [5]; [32]) was at least 20 µM. The Kd (HLA-A*02:19 [6]; [32]) was at least 20 µM, the Kd (HLA-B*15:01 [7]; [32]) was at least 20 µM and the Kd (HLA-B*51:01 [8]; [32]) was at least 20 µM. The Kd (HLA-A*03:01 [9]; [32]) was at least 20 µM, the Kd (HLA-A*23:01; [32]) was at least 20 µM and the Kd (HLA-A*26:01; [32]) was at least 20 µM. The Kd (HLA-A*68:02 [10]; [32]) was at least 20 µM, the Kd (HLA-B*18:01 [11]; [32]) was 0.0813 µM and the Kd (HLA-B*27:03 [12]; [32]) was at least 20 µM. It also gave a Kd (HLA-A*02:01 [13]; [32]) of at least 20 µM and a Kd (HLA-B*46:01 [14]; [32]) of at least 20 µM.
With QLEVRSTEV the Kd (HLA-B*15:17; [33]) was at least 20 µM, the Kd (HLA-B*57:01 [1]; [33]) was at least 20 µM and the Kd (HLA-A*02:16 [2]; [33]) was at least 20 µM. For the same sequence, the Kd (HLA-A*24:03; [33]) was at least 20 µM, the Kd (HLA-B*39:01; [33]) was at least 20 µM and the Kd (HLA-A*29:02; [33]) was at least 20 µM. It also gave a Kd (HLA-A*02:12 [4]; [33]) of 0.43 µM, a Kd (HLA-B*15:01 [7]; [33]) of at least 20 µM and a Kd (HLA-B*51:01 [8]; [33]) of at least 20 µM. The Kd (HLA-A*03:01 [9]; [33]) was at least 20 µM, the Kd (HLA-A*23:01; [33]) was at least 20 µM and the Kd (HLA-A*26:01; [33]) was at least 20 µM. For the same sequence, the Kd (HLA-B*18:01 [11]; [33]) was at least 20 µM, the Kd (HLA-B*27:03 [12]; [33]) was at least 20 µM and the Kd (HLA-A*02:01 [13]; [33]) was at least 20 µM. For the same sequence, the Kd (HLA-B*46:01 [14]; [33]) was at least 20 µM and the Kd (HLA-A*02:11 [15]; [33]) was at least 20 µM.
